Assay results from the DeepSol protein solubility set.

Assay: soluble on expression in E. coli; label from the status in PepcDB or PDB records

Sequence	soluble on expression in E. coli
MSLATYFMYPSTGGLNTYIAVLKKTLEAQGYTVDVLARKPGPRLHLLSEEINMNTLRKMMSKPLNHYYKKHGQFSEPYIIKQELDRYVFELSSALLPIETYDLIHAQDVVSTRALARVKPAHIPLVTTIHGLYSEERFNRGVIQTKNDHSWKYSLAQEYIGALSADKVIVLTNWMRQRFQDQLNISSHHFETIPNGMFIEEFTNKLTNKTQVHIPESKKFTILCPARLVAEKDHRTLIDAVQLLKKEREDFICLLAGDGELREELEGYCREKEVQDVCLFLGNRNDIPELMNRSDLVVLPSLQENLPFTVMEAQVAGKPLIVSNAGGLPEMVHDGVTGRLFKKRDSRQLAFILKELMDHDEDRQLLGNNAKDWGRSQWSANTFCEKIKTVYAEALEQKKKEPRLMEFESVNRPTYHTLELHRFFEKSLWKKIDQCLPSNYTIPDPAFIKSLTTYEGHHHHHH	not soluble
MSTIAKDQTQINDKIRAKELRLIGQDGEQIGVKSKREALEMAERVDLDLVVVAPNAKPPVARIMDYGKFKFEQQKKEKEMKKKQKIINVKEIRLSPTIEEHDFQTKLKNGRKFLTKGDKCKVSIRFRGRAITHKEIGQRVLEKYADECKDIATVEQKPKMDGRQMFIMLAPTAEK	not soluble
GMTQLDTWLANTKPLIPVIVIDDLVHAIPMAKALVAGGVHLLEVTLRTEAGLAAISAIKKAVPEAIVGAGTVCTADDFQKAIDAGAQFIVSPGLTPELIEKAKQVKLDGQWQGVFLPGVATASEVMIAAQAGITQLKCFPASAIGGAKLLKAWSGPFPDIQFCPTGGISKDNYKEYLGLPNVICAGGSWLTESKLLIEGDWNEVTRRASEIVKLSDI	soluble
MIKIDNVKKFYTDKVKIGPLDIEIPKAGFTSLIGPNGAGKSTTLLMIGRLLDMDEGQIQVANMDVSESKSKDLAKVLTILRQENHFVTRLTVRQLVGFGRFPYSKGRLTKEDEVIISKYIDFLDLTNLENRYLDELSGGQRQRAYVAMVLCQETEYVLLDEPLNNLDVARSVQMMEHLRRAANEFGRTILTVMHDINFAAKYSDKICAMKDGQIAAFGTVEEVMDSTLLTDIFETRIEIIKGPYGPIAVY	not soluble
MRKSKRERQRLLQETIRENPFITDEELAEKFSVSVQTIRLDRLELSIPELRERIKNVARQSFADKVRALPLEEVIGDIIDIEPDASAISIFDVKEEHVFRRTRIARGHHLFAQANSLAVAVIHDELALTAKATIRFVRQVKEGERVVAKAKVTGKTAHGRTIVEVNSYVGQELVFSGTFEMYRSNIEKKDGDSNEYRG	not soluble
IGKVGYRLGFNLSDYKSKITKYDDNATTKLLSSFYPGQVMGEIWGYIADGYYSVDDFEDTSSWKLKEGITSINGYNVRPGDVKFKNLRDDESSTNVITSGDNTFDNPGDRKVIGNTTPRYQYGINLGANYAGFDLNVILQGTGKRDYWISNVLTFPMNGDNFIPLFDGLSDYWMPKDPDNGDWTAVNPNAKYPRLYGNRGNSGSNLRQSDKYLSDASYLRIKNITLSYNLPKKWLSQIFLSQMKAFVSVENVATFTSLPSGIDPERIEWNYPAFRTVSFGINITL	not soluble
MSRFLISSFILIAFVLQFGEGSIAVQEVKDGEKVQIELFKGAKAIQRSVDAGEQIFHFEGENKGVFVDANGKAIDSSNYEENNGHLVIKKFTKADVGSYSEYPTKIIKTKTDHGFSGVAAPVLKLSLQ	soluble
MEQPFDLAAELAKQPHLLEIAGNLLMKSGPEDYIGAVLCLRGTLYFKKAHTPLVRESLCQCFDEFERLAEPHLTWLWREEPAQGKPLTAYRDTQPLREMMGAMDEDDHLSFCYTSGKKSRDAGAWLFDIYGKRSWQAKMGHDLSVLEFSVPLLYQERQPLDFLQLFIDFARRLEPEQGYAGHAYNLSPTSWDNDEPSEAFMAARMPGLDVGTACLLANTPEFKPTRIKTVSWLTLLNNERLALAGGLDALRAQLPSSHFAFYRYGDGVVIQAGAYPYIAGDAEDSRPAPYVLLNHALKGIRYETIGSLHGGSHDGELRLVGWAADQWLKRLDVEDSEIPRWCDKLLSAEPYLDATNTLPERL	not soluble
MKKSLKQKIVSSLLAVSLAVSLAPIGQANADSTSEIKQTSSITKQVDASRAIEHIRFLSETIGPRPGGTKSEEWASRYVGMQLKSMGYEVEYQPFQVPDQYVGFIESPLSTKRNWQTGAAPNALISTESVTAPLIFVQGGTKLEDIPNEVNGKIVLFERGTTVADYNKQVENAVSKGAKGVLLYSLIGGRGNYGQTFNPRLTKKQSIPVFGLAYAQGNAFKEEIAKKGTTILSLKARHESNLTSLNVIAKKKPKNSTGNEKAVVVSSHYDSVVGAPGANDNASGTGLVLELARAFQNVETDKEIRFIAFGSEETGLLGSDYYVNSLSPKERDRILGVFNADMVATNYDKAKNLYAMMPNGSPNLVTDAALQAGKQLNNDLVLQGKFGSSDHVPFAEVGIPAALFIWMGVDSWNPLIYHIEKVYHTPQDNVFENISPERMKMALEVIGTGVYNTLQQSVTQTEQKAA	not soluble
MIFTYNREHVGDTLMVIVKDSQGAKLDVDRRGQVARVYLQDSKETVAWNIFEVSSLIVIEGAGQITLSDQDIKILNAELLKEGFEDSLVNNIEPTFVVAQIKEIIDHPDSDHLHICQAEINDGKTVQIVCGAPNASVGLKTVAALPGAMMPNGSLIFPGKLRGEDSFGMLCSARELALPNAPQVRGIIELSDQVIVGESFDANKHWKNLEHHHHHH	soluble
MGSDKIHHHHHHMGDVTVKDYKGGTIEDPEELKSNQTILTIDQAKYFNFKVDDVDKAQSNILLVDKGMGRASYAVQDVIDKFIAALVKDAKIKIGSTSKPIEITVANAYDTLVDLGVELDNKNVPRVGRFAILPPFYLGLLSKDPRFTKDFKILENGVVEGATVSGFKLMMSNNVPFSANNYSIMAGTDMAISYAGQVTEIEAYRPEKSFSDAMKGLYVFGAKVVQPDCLACLTVKQKVAEV	not soluble
MEKIWPTGAQEETLMTQETNQNEVVVQNNAVAKTNTGSNYITAILEETKQGFVEANNGLDMDFVRMGEWLTVTKKGNFVEKDDENVSYGDNIDVVIGYGEQRWSVWGLEESPEAGQLIVAERTKEEAEIVLNQWLAENPQAQERYELDAIQLRYMASVVPVSTLRPDDFPRIYLMSFSPTDTIIFGRFAMNVYTGKYKALEIPSKLGVNRIVTRLVTAERKSRTNASNQWIGIDFQPVGVFKPEDYGINVEETEQAEKASE	not soluble
MAHHHHHHMRLHLPGRRDTRTASTGSSPVASLFLQKPIIFRKVAHGSASTILNVKRLELVLLETQSDQGKSEPDIQRLHWLTPHKLHQVHNDRITTATLQKNKVHSGYQFVLHIVQVSLEFLYRQKKAIILQLAERTLHERIFGGAKQLYHHQRAAGGGGK	not soluble
MSLQVEFRECDPGNLWIWFEFAEPPVPAELEYLKEVLESWYVLGKLGGFNAERLVAQEAEVDLSYLEYPSDSAPLTSLMHNMGSLEEKGNWARCWFDLGTADALALDVLINALRTLSLEYINLSRVIIGGQNEDWPTPDPEETDVYDDLNGYLRDHWGEEGEGHHHHHH	soluble
MQVLWSNPIELGMTGGDVRMVKGPSDALRCLADHWPYRGPYYVAARSACRAAIDGRRTCEEARRLFLSAAEEARLKAH	not soluble
MNNQNNNFVDFSEDDDMMDADFLGVVIPDDLMNASLEFQRTEPFSFIPAEEDLAPMEILPNNQGDVEMTAVDKNPDKVLFELRVETQIEPTLNYINAENEAVEWDIKSYYDFDNPQRPAQADEAATYQENGYGFVDFQPFAQQQQPAYNGNEPEFLIQRMQITDETYANAHFHQNEYAIEEKPSLFSPSSTPSYCCTSGPISPAYTPIGNNANACAPTRSRRTSTASNKSGGKIGKVAKLGEKSSGEKRTRMTKAEMSRLTEKEKLERKKEQNRANAKNCVKNRNNSKEELKQTLEMLREKVQEAKRQNEMQENGLLAAYETNIFAVQGNNFPYGSLELFYDQLQGSKAEAVEQVQYDNNGEVVQLEEAFNKTEQDYGQYTSVKKIAGLPQNTFASKKSRAKTAFEIADHQLNLKKEEVELREANAIKVVLNQITRELNRYMDGAKLAEQQAFDENFQQFEPS	not soluble
MKEKYKKSLYIPNELLLEIFADKNLDIQNIIVVSMVCKLWYELSLDNAVWRPLFIKRFSYSPTLANHSIFKEDYQKQLALTQAMKKKCESNHACRNEPGLLEAIREKNIPLIYALFESGHRIIIDSFPDGEQQFTEEMLGFLSECAELPSSLLARIFKRGFCTADMETSEFLALHFIVAEADEKLLQKIFRALGDDLLSVSRYCDLYDNNFFSSLLHFPVERFSLVLRLLYETLGKTKLSTLLVYQNHTYTDWSCIHSASRCGREYFFITLKYLKRQDYPVLLKKGLNDEDIPLFNIAYWGDKESLSHIINILGADATTFLKYKDNKGRNILLPALLSEDHSTVELIEKVMGMEFIDLLLMQDTNGRDILRRVMLLQEPTVLRRINTVLKLLRDYDCLDIAQELYSSDEFTQLISQNLYINQDETIELFNKYTEEKTNNFCSIL	not soluble
MKKLAIAGALLLLAGCAEVENYNNVVKTPAPDWLAGYWQTKGPQRALVSPEAIGSLIVTKEGDTLDCRQWQRVIAVPGKLTLMSDDLTNVTVKRELYEVERDGNTIEYDGMTMERVDRPTAECAAALDKAPLPTPLPLEHHHHHH	soluble
MAWSRVGDNIATHPLMSRLLTSCEFDHSLKNEAFGALVQLTTVSAAHLTDYIIEYGLMAQIAPGREKQLIDVLVDAGMLFRDEVDGRKVLRIVDDNELLHNRSRDEVEIDRRRAADKRNPALIPAVRYRDGDQCRWCGRTVDWRDRKGGRAATIDSLNEHRESTVDTLVVACKSCNSKRGAGEELQLLPTPTREKVHYTDHTIDWINRSEWAQHEGIHLEPRQTHLDIGQQITTPAAPSEQQQVGQAAAPLEAAARAHRAAPDVEAPFVSDPLDEAPDWVKQSLVNDHGQAAAPLMAAAPREHDHAPAAPSEQQQVGQAAAPLEAAARAHRAAPDVEAPPQHHVDNETVKPSTDLEQITDRWGDGSRSLGTGRDGNGQVGTARRRRRRRRGGRGTGRNKAHG	not soluble
MSLIPDVSQALAWLEKHPQALKGIQRGLERETLRVNADGTLATTGHPEALGSALTHKWITTDFAEALLEFITPVDGDIQHMLTFMRDLHRYTARKLGDERMWPLSMPCYIAEGQDIELAQYGTSNTGRFKTLYREGLKNRYGALMQTISGVHYNFSLPMAFWQAKCGVTEGGSGKRKISAGYFRLIRNYYRFGWVIPYLFGASPAICSSFLQGKPTTLPFEKTDCGMYYLPYATSLRLSDLGYTNKSQSNLGITFNDLHEYVAGLKRAIKTPSEEYARIGVEKDGKRLQINSNVLQIENELYAPIRPKRVTRSGESPSDALLRGGIEYIEVRSLDINPFSPIGVDEQQVRFLDLFMVWCVLADAPEMSSDELLCTRTNWNRVILERRKPGLTLGIGCETAQFPLPKVGKDLFRDLKRVAQTLDSIHGGEEYQKVCDELVACFDNPELTFSARILRSMIDEGIGGTGKAFGEAYRNLLREEPLEILQEEEFIAERDASVRRQQEIEAADTEPFAAWLAKHAEGGSHHHHHH	soluble
MGHFSEKSGSLILRRSLFIVDAIYLKKFRKKTGLKQKEFALSSGLTLKSLRNYEQGKRKLTLEKYQEIKSHFGYLVENDSSRLQVMIDYVRITLKDVRDLEFFCRNFLHCAFKEFQPFESKLMNYNHLWKRGDIWIFDFADKHETGNFQITVQLSGRGCRQLELLMETEKFTWHDWLSYLRNSYRDDMNVTRFDIAIDELYLGKDRENEQFHLSDMISKYYRHELDFESLRTWNYIGGGSLNFSDMEEIEQNRQGISLYFGSRQSEMYFNFYEKRYEIAKQEGITVEEALEIFELWNRYEIRLSQSKANAAVDEFISGVPIGEISRGLIVSKIDVYDGKNEYGSFQADRKWQLMFGGVEPLKFVTKPEAYSIERTLRWLSDSVSPSLAMIREYDMIVDGDYLQTILNSGEVNERGEKILDSIKASLGIL	not soluble
